From the DeepSol protein solubility set

Experiment: soluble on expression in E. coli; label from the status in PepcDB or PDB records

Sequence | soluble on expression in E. coli
MGHHHHHHSHQETQLSSKVVQKLVLPFGRLNYLPLEQQFMPCLERILAREAGVAPLATVNILMSLCQLRCLPFRALHFVFSPGFINYISGTPHALIVRRYLSLLDTAVELELPGYRGPRLPRRQQVPIFPQPLITDRARCKYSHKDIVAEGLRQLLGEEKYRQDLTVPPGYCTDFLLCASSSGAVLPVRTQDPFLP | not soluble
MGHHHHHHSHSSVTIGRFQSVRYDVNLEKAKELGIPVVRRITGGGSVFHDEYGEITYSVVISEDYHPMLKNIQDSYRFLAGPLVDALKDLGIEAEFSGLNDIVVRGKKISGSAQTRRRGIILQHGTLMYATRLEI | not soluble
MGHHHHHHSHTVCSLSSGKFGTLLSGSWDTTAKVWLNDKCMMTLQGHTAAVWAVKILPEQGLMLTGSADKTVKLWKAGRCERTFSGHEDCVRGLAILSETEFLSCANDASIRRWQITGECLEVYYGHTNYIYSISVFPNCRDFVTTAEDRSLRIWKHGECAQTIRLPAQSIWCCCVLDNGDIVVGASDGIIRVFTESEDRTASAEEIKAFEKELSHATIDSKTGDLGDINAEQLPGREHLNEPGTREGQTRLIRDGEKVEAYQWSVSEGRWIKIGDVVGS | not soluble
MGHHHHHHSHVLLFVYGEPVTRPHSGPAVYFWRHRKQADLDLARGDFAQAAQQLWLALRALGRPLPTSHLDLACSLLWNLIRHLLQRLWVGRWLAGRAGGLQQDCALRVDASASARDAALVYHKLHQLHTMGKHTGGHLTATNLALSALNLAECAGDAVSVATLAEIYVAAALRVKTSLPRALHFLTRFFLSSARQACLAQSGSVPPAMQWLCHPVGHRFFVDGDWSVLSTPWESLYSLAGNPVDPLAQVTQLFREHLLERALNCVTQPNPSPGSADGDKEFSDALGYLQLLNSCSDAAGAPAYSFSISSSMATTTGVDPVAKWWASLTAVVIHWLRRDEEAAERLCPLVEHLPRVLQESERPLPRAALHSFKAARALLGCAKAESGPASLTICEKASGYLQDSLATTPASSSIDKAVQLFLCDLLLVVRTSLWRQQQPPAP | not soluble
MGHSQSYDLRNPEGGEKTPVRGVRRVSREHQTDAQFSTETAEPFDFREDELRDRIRREQLRKREVELETLRIRQHESREPIIDAYRQNQPAPQGNLYNEFNHYDSMKHASPSDPATYFALKPMTEVNEGRQFSIPTSSTRRYDQVPIDPSPELQRREVPSKQSPPNYPKRSSVFGGRVSPLPRQSEVDPHPMPRYIPPMSPSNPIDDVPPTHVSELHAEKRMIVGIDDELQPEKNNVTYVTVATAAIDNELLHRHPEVGRHPVYVLPAQTSYGASAKRRSSDDEAKNVLPPQNCTVEHCTHVAVNDGSPVVIRKRASQDSIRDKENRLTIPINEDDTENVGEGTNYQNVSKKCFEERLHYDSYMPTLSLRQRPVVSFYDKLH | not soluble
MGIGSKILENNIQKSISLGFYHSHSELRKSFYEFFKSKNHEILRSSSVIPDENDGTLLFTNAGMNQFKPLILSSTESRRVANIQKCIRAGGKHNDLDDVGKDLHHQTFFEMMGNWSFNDAFSKEEACRYAWEYLVEILGINADRLYVSYFGGIEKLGLPEDRECREIWKRIGVSSNRILPFVAENFWEMGAAGPCGPCTEIHYDRIGGRDASRLVNIDDSVVEIWNIVFMSSVRDSCGQIRHLGKNHIDTGMGFERLLSVVQNKTSNFDTDVFTPILEKTSELAKKQYTGSLDSRQDATFRLVADHIRAATVAISDGAVPDGTGCGFIVRKMMRRAFLQGISKLGIERYAMSELVPVVASTMKEVYPEIHDTSTHIRKIFNDEEAQFWKTVDKAKKMFDSVAAESKSPIISGRKAFNLFETHGLPLAVTVELARNIGREVDETEFERCRLEAQKVSQKASQFKLPISADDFPSHSDKEKYSYVFRNGKYEFPQVKTRILQVYKDQQKAESLEANDRGFLVLEECQFYGEQGGQTSDTGHLLIDGREVFEVENAKKIAGGAVTVLFGRALLPIRRDLRVEQKLDETRREGVMRAHSATHLLNWALQKLGVGSGQKGSSVDCDRFRFDYSTGDEDLSKEQRTELLIKCEMKMREFIQNGGFTEIIETSLEEAKKIENLQSDVKEDRIGGASVRVVALGSGADVPVECCSGTHIHDVRVIDDVAIMSDKSMGQRLRRIIVLTGKEAAACRNYTKSIYEDLRSTDPKERSKTGKNIDWKRVPIADQARISILLKQKK | not soluble
MGILKSLFTLGKSFISQAEESIEETQGVRMLEQHIRDAKAELDKAGKSRVDLLARVKLSHDKLKDLRERKASLEARALEALSKNVNPSLINEVAEEIARLENLITAEEQVLSNLEVSRDGVEKAVTATAQRIAQFEQQMEVVKATEAMQRAQQAVTTSTVGASSSVSTAAESLKRLQTRQAERQARLDAAAQLEKVADGRDLDEKLAEAGIGGSNKSSAQDVLARLQRQQGELEHHHHHH | not soluble
MGISPDAASKLYTVKFQPDPIDKKGWSVIDFNNCCTQDGGWYLNMGWGVESLIDNNPGTQWLCRWDVKEPLPYYFVFDMGKEYTLFRFGFANPVAPAAHVWAGTSKAGYVEASIDNENWVKLKDWTSPKIGEPNVNMDVPATQARYIRFVITDTYPTYDGLRVSLGEVYAWGLEHHHHHH | soluble
MGKGAMNRRDFLKVGGMSTLALTLGSTGLFSLEGQAKNSSNPTSGFGGFGPLVKDPNGILDLPKGFKYKILSRTGDRMTNGDLVPSMHDGMAAFQGPRNTTILVRNHENGTNADYPVNGKNPWSKGAAGGTTALVVGPNREVIREYVTNSGNIRNCAGGPSTWGTWLTCEETRDMGHGFVFEVNPHEPENEMSKTPIRDMGYFSHEACNVDPSTGIWYLTEDNSPSFFYRFTPHDRSQTLGSLQKGGILEAAAIDELPHNQASNFTSGQKIGIVWKKVNPERAKEDARDLGCIRFSRLEGSWFAGGAFWFDDTNAGEKNLGRIYRYFPATNTLELFYESSDHNDLEMPDNITITPWGDLWIAEDGNIGRDRMIGLTPEGNVYTFAENRLNNSEFAGPAFSPDGKTFYLNMQTPGITFAIWGPFARRNAARQVAMSHAAPPPGYGPQVSDKLADYAERHGMSPLAAAALERHGFIVLEHHHHHH | not soluble
MGKKKSDTASGGAIPEGDNEKGKKIFKQRCEQCHVVNSLQTKTGPTLNGVIGRQSGQVAGFDYSAANKNKGVVWDRQTLFDYLADPKKYIPGTKMVFAGLKKADERADLIKFIEVEAAKKPSA | not soluble
MGKLEDICDQYLSRKKEQDKVIEAVERCLKKGYDYEKLKDRVQEAISDPQKARKVISAVCDHYPQLRKRTRTDRDGEDRDRKRDRTDDRRKPDASVPAAVAEPQKPAEQSIEERLRAKEMMYKAQQEIEETKRKMAIAAGTLQPKAALAQAKTQMVAPGGKSLSLGRDEATMLMTHSMDKKSRMEELKARLARTTVMAKIDAMVGNSGAGVMAPLPEAVQQAEKKVQQQITKESKEPEKLIEYLDPRIQARTADRRRRGFNFHEKGEFEKLANKQRAMAKLERLQNEVSSAAQSTGISSAVKLAMVTPTGTAKMENGVPDIEWWDMLVLDKVNYDEIPAENDMERYSQTVSELVEHPISMRAPTEPLTQQYLKVYLTTKEKKKIRRQNRKEVLKEKTEKIRLGLEKAPEPKVKISNLMRVLGNEAIQDPTKMEAQVRKQMAERLKKHETLNAERKLTEDQKRAKKTKKLSEDTSTAVNVSVYRVKSLAHPSKKFKVETNAKQLQMSGAIMMHKAQNVIVVEGGPKQQKFYKNLMINRIKWSDEIIGQKKDAEKDAPGERNLCEMIWEGQVKRRNFRDFTVHTATLEKQAREFFEKHGVAQYWDLCYSTTVLLEGQDILPTA | not soluble
MGKLFGTFGVRGIANEKITPEFAMKIGMAFGTLLKREGRKKPLVVVGRDTRVSGEMLKEALISGLLSVGCDVIDVGIAPTPAVQWATKHFNADGGAVITASHNPPEYNGIKLLEPNGMGLKKEREAIVEELFFKEDFDRAKWYEIGEVRREDIIKPYIEAIKSKVDVEAIKKRKPFVVVDTSNGAGSLTLPYLLRELGCKVITVNAQPDGYFPARNPEPNEENLKEFMEIVKALGADFGVAQDGDADRAVFIDENGRFIQGDKTFALVADAVLKEKGGGLLVTTVATSNLLDDIAKKHGAKVMRTKVGDLIVARALYENNGTIGGEENGGVIFPEHVLGRDGAMTVAKVVEIFAKSGKKFSELIDELPKYYQIKTKRHVEGDRHAIVNKVAEMARERGYTVDTTDGAKIIFEDGWVLVRASGTEPIIRIFSEAKSKEKAQEYLNLGIELLEKALS | soluble
